Paper PMC3427469
pKd: −log10 of the molar value.

Experiments:
GST-WAVE2 = GST-WAVE2 (UniProt Q9Y6W5); experiment: pull-down
FLAG-WAVE2 = FLAG-WAVE2 (UniProt Q9Y6W5); experiment: co-IP
Sequence of FLAG-WAVE2 (Q9Y6W5 whole entry): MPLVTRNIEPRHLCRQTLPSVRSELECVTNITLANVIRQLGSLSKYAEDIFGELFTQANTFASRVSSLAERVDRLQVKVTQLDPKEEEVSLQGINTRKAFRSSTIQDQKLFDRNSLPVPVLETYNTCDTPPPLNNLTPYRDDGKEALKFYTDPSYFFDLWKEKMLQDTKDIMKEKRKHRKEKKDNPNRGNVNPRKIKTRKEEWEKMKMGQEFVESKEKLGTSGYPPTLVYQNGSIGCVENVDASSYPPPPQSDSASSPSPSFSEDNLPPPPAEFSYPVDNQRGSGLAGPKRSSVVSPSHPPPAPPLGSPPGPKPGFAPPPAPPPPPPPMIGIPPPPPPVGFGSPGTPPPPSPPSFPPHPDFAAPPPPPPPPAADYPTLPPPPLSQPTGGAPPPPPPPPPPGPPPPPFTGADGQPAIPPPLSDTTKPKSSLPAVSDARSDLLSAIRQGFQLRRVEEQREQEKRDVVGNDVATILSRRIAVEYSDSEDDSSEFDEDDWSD

Sequence of GST-WAVE2 (Q9Y6W5 whole entry): as above

| KD in the presence of Exo70 (GST-WAVE2) [nM] | pKd (GST-WAVE2) | fold increase of Arp2/3 bound in the presence of Exo70 against BSA (GST-WAVE2) [fold] | Arp3 co-precipitated after Exo70 siRNA, percent of control siRNA-treated cells (FLAG-WAVE2) [%] | Substance |
| --- | --- | --- | --- | --- |
| 210 | 6.33 | 3.5 | – | Arp2/3 complex (purified) (from UniProt P61158 1-418) |
| – | – | – | 44 | Arp2/3 complex, endogenous in MDA-MB-231 cells (from UniProt P61158 1-418) |
